Measurements as given in US20240025971A1.

Columns and labels:
[1] = molecular target: SARS-CoV-1 spike (pseudovirus) (SARS-CoV-1) (UniProt P59594); assay: cell-based or functional assay
[2] = molecular target: SARS-CoV-2 Wuhan-1 full-length Spike protein (SARS-CoV-2) (UniProt P0DTC2); assay: cell-based or functional assay
[3] = molecular target: SARS-CoV-2 Spike (S) trimer (SARS-CoV-2) (UniProt P0DTC2); assay: ELISA, S trimer coated, 1:50 dilution

For “Anti-Nucleocapsid (Neg Control) (antibody)”, the Pseudovirus Neutralization [1] was greater than 50 µg/mL and the Pseudovirus Neutralization [2] was greater than 50 µg/mL.
CA-1 (AB-009265) (antibody) was tested, and the Optical Density (OD; 450 nm) [3] was 2.74 OD450.
CB-6 (AB-009264) (antibody) showed an Optical Density (OD; 450 nm) [3] of 2.81 OD450.
